Data on 3 molecules can be found in US6943279B1, “Amino polyol amine oxidase polynucleotides and related polypeptides and methods of use” (priority 1999, dated 2005).

A short description of test [1]: Mutated APAO lysates from E coli, Amplex Red assay, substrate AP1. Type of test: biochemical. Here is the method:
The following assay was used to determine the substrate specificity of the APAO enzyme. Reaction mix: 436 μl of 200 mM Na-phosphate, pH8.0; 50 μl substrate (10 mM); 2 μl Amplex Red (1 mg in 200 μl DMSO); and 2 μof Peroxidase (5000 U/ml). The APAO enzyme was recombinant enzyme produced,as GST fusion in E. coli, purified over a glutathione affinity column and cleaved with thrombin to remove the GST. All components were mixed at room temperature. The initial rate was determined in a spectrophotometer at 572 nm over one minute by absorbance units/second (BLANK). Ten microliters of APAO at 70 ug/ml was added and mixed. The initial rate was again determined at 572 nm over one minute in absorbance units/second (SAMPLE). The rates were converted to absorbance units/minute. The BLANK value was subtracted from the SAMPLE value. The absorbance units were converted to μM H2O2 wherein 1 μM H2O2 equals 0.138 absorbance units at pH 8.0.
The APAO molecules mutated at specific cysteines were tested in a bacterial expression system using the previously described Amplex Red assay. The results can be seen in the table below entitled “Cys(−) APAO lysates from E. coli.” The mutated APAO molecules can then be tested in maize, linked to a signal peptide, as previously described. Either one of the cysteines or two or three together could be mutated to serines without any measured loss in APAO enzyme activity of the E coli-expressed enzyme. […] The mutated versions of APAO operably linked to a signal sequence, which retain function when expressed as recombinant fusion proteins in E. coli may also provide additional stability or foldability when expressed in plants or other secretion expression systems.

Test [2] can be described thus: Mutated APAO lysates from E coli, Amplex Red assay, substrate FB1. Type of test: biochemical.
The mark [3] stands for this setting: Cys(−) APAO lysates from E coli.
Where [4] appears, read: Triple Cys(−) APAO lysates from E coli.

B1: C359S, C461S: APAO mutated at both cysteines 359 and 461 (SEQ ID NO: 51), plasmid PHP16738 (protein)
chain: KDNVADVVVVGAGLSGLETARKVQAAGLSCLVLEAMDRVGGKTLSVQSGPGRTTINDLGAAWINDSNQSEVSRLFERFHLEGELQRTTGNSIHQAQDGTTTTAPYGDSLLSEEVASALAELLPVWSQLIEEHSLQDLKASPQAKRLDSVSFAHYCEKELNLPAVLGVANQITRALLGVEAHEISMLFLTDYIKSATGLSNIFSDKKDGGQYMRCKTGMQSISHAMSKELVPGSVHLNTPVAEIEQSASGCTVRSASGAVFRSKKVVVSLPTTLYPTLTFSPPLPAEKQALAENSILGYYSKIVFVWDKPWWREQGFSGVLQSSSDPISFARDTSIDVDRQWSITCFMVGDPGRKWSQQSKQVRQKSVWDQLRAAYENAGAQVPEPANVLEIEWSKQQYFQGAPSAVYGLNDLITLGSALRTPFKSVHFVGTETSLVWKGYMEGAIRSGQRGAAEVVASLVPAA
modifications: Cys (-) APAO; removal of cys 359 and 461 (Exophiala spinifera)
Turning to B1, the Conclusion result in test [1] (setting [3]) was “Fully/More Active”; in test [1] (Cys(−) APAO lysates from E coli, listed as C359S+C461S), “more APAO activity in crude lysates than wild type enzyme”; in test [2] (setting [3]), “Slightly active”. Besides, the “M H2O2/min” value in test [1] (setting [3]) is given as 3.90 μM H2O2/min; in test [2] (setting [3]), 0.16 μM H2O2/min.

B2: C167S, C359S, C461S: triply Cys-mutated version of APAO (SEQ ID NO: 53), plasmid PHP17089 (protein)
chain: KDNVADVVVVGAGLSGLETARKVQAAGLSSLVLEAMDRVGGKTLSVQSGPGRTTINDLGAAWINDSNQSEVSRLFERFHLEGELQRTTGNSIHQAQDGTTTTAPYGDSLLSEEVASALAELLPVWSQLIEEHSLQDLKASPQAKRLDSVSFAHYCEKELNLPAVLGVANQITRALLGVEAHEISMLFLTDYIKSATGLSNIFSDKKDGGQYMRCKTGMQSISHAMSKELVPGSVHLNTPVAEIEQSASGCTVRSASGAVFRSKKVVVSLPTTLYPTLTFSPPLPAEKQALAENSILGYYSKIVFVWDKPWWREQGFSGVLQSSSDPISFARDTSIDVDRQWSITCFMVGDPGRKWSQQSKQVRQKSVWDQLRAAYENAGAQVPEPANVLEIEWSKQQYFQGAPSAVYGLNDLITLGSALRTPFKSVHFVGTETSLVWKGYMEGAIRSGQRGAAEVVASLVPAA
modifications: Cys (-) APAO; removal of cys 169, 359, and 461 (Exophiala spinifera)
As for B2, the Conclusion entry in test [1] (setting [3]) is “Slightly active”; in test [1] (setting [4]) it was “Slightly Active”; in test [2] (setting [3]), “Slightly active”; in test [2] (setting [4]), “Slightly active”. Besides, the “M H2O2/min” value is 0.27 μM H2O2/min in test [1] (setting [3]), 0.27 μM H2O2/min in test [1] (setting [4]), 0.25 μM H2O2/min in test [2] (setting [3]) and 0.26 μM H2O2/min in test [2] (setting [4]).

B3: C461S: APAO mutated at cysteine 461 (SEQ ID NO: 49), plasmid PHP16737 (protein)
chain: KDNVADVVVVGAGLSGLETARKVQAAGLSCLVLEAMDRVGGKTLSVQSGPGRTTINDLGAAWINDSNQSEVSRLFERFHLEGELQRTTGNSIHQAQDGTTTTAPYGDSLLSEEVASALAELLPVWSQLIEEHSLQDLKASPQAKRLDSVSFAHYCEKELNLPAVLGVANQITRALLGVEAHEISMLFLTDYIKSATGLSNIFSDKKDGGQYMRCKTGMQSICHAMSKELVPGSVHLNTPVAEIEQSASGCTVRSASGAVFRSKKVVVSLPTTLYPTLTFSPPLPAEKQALAENSILGYYSKIVFVWDKPWWREQGFSGVLQSSSDPISFARDTSIDVDRQWSITCFMVGDPGRKWSQQSKQVRQKSVWDQLRAAYENAGAQVPEPANVLEIEWSKQQYFQGAPSAVYGLNDLITLGSALRTPFKSVHFVGTETSLVWKGYMEGAIRSGQRGAAEVVASLVPAA
modifications: Cys (-) APAO; removal of cysteine 461 (Exophiala spinifera)
B3: the Conclusion entry in test [1] (setting [3]) is “Fully Active”; in test [2] (setting [3]), “Slightly active”. Also, the “M H2O2/min” value in test [1] (setting [3]) is listed as 2.25 μM H2O2/min; in test [2] (setting [3]) it was 0.14 μM H2O2/min.
